Measurements from publication PMC8758671.

Tests used:
[1] = target: porcine trypsin (porcine) (UniProt P00761); assay: enzyme inhibition kinetics (double-reciprocal, Lineweaver-Burk plot); 0, 66.66 and 133.33 ηmol L^−1 rTcTI against 10 µg porcine trypsin, 15 min at 37 °C, then substrate BApNA at 0.04–0.42 (printed ηmol L^−1) in 240 µL; absorbance at 410 nm; quadruplicate; competitive inhibition
[2] = target: porcine trypsin (porcine) (UniProt P00761)

UniProt P00761, sequence (P00761 9-231): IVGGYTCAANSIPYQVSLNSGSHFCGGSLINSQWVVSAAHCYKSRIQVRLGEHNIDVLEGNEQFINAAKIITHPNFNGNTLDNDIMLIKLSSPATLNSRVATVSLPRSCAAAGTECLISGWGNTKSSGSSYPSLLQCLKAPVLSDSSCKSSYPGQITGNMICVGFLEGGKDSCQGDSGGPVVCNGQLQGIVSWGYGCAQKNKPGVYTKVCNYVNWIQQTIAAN

“recombinant Theobroma cacao trypsin inhibitor (rTcTI) (natural protein)” gave a Ki [1] of 0.408 µM and a residual trypsin activity (hydrolysis of BApNA, absorbance at 410 nm) with rTcTI rising from 0.5 to 1.2 μmol L^−1; 70% at the lower concentration [2] of 12%.
